Residue numbers refer to the chain shown, from its start. Numbers in names are those of the source. Numbered stars: 1 amine (or outer) side, 2 acyl side, 3 side chain; on linkers, the order of the positions; unused ones are H or OH. Square brackets hold non-standard residues; d marks the D form. Ends that are not written are not given here. * marks the point of attachment. Tyr(OMe) = O-methyl-tyrosine, COc1ccc(C[C@H](N[*:1])C(=O)[*:2])cc1; Orn = NCCC[C@H](N)C(=O)O; Hexanoyl = CCCCCC(=O)*; Aib = CC(C)(N)C(=O)O
B1: VPAC2 receptor peptide agonist P343 (peptide)
peptide: HSDAVFTDNYTXLRXQVAAXKYLQSIKNKRYGGPSSGAPPPS
modifications: N-terminal hexanoyl (C6); hR (homoarginine) at 12; Aib at 15 and 20
B2: VPAC2 receptor peptide agonist P357 (peptide)
peptide: HSDAVFTDNYTRLRXQVAAXKYLQSIKXXGGPSSGAPPPS
modifications: N-terminal hexanoyl (C6); Aib at 15, 20 and 28; Orn at 29
B3: VPAC2 receptor peptide agonist P418 (peptide)
peptide: HSDAVFTEQYTXLRXQLAAXXYLQSIXXGGPSSGAPPPS
modifications: N-terminal hexanoyl (C6); Tyr(OMe) at 10 and 22; Orn at 12, 21, 27 and 28; Aib at 15 and 20
B4: VPAC2 receptor peptide agonist P393 (peptide)
peptide: B3 peptide with D3E
modifications: N-terminal hexanoyl (C6); Tyr(OMe) at 10; Orn at 12, 21, 27 and 28; Aib at 15 and 20
B5: VPAC2 receptor peptide agonist P397 (peptide)
peptide: B3 peptide with E8D, Q9N, L17V
modifications: N-terminal hexanoyl (C6); Orn at 12, 21, 27 and 28; Aib at 15 and 20
B6: VPAC2 receptor peptide agonist P368 (peptide)
peptide: Hexanoyl-HSDAVFTDNYTQLR[Aib]QVAA[Aib]KYLQSI[Orn]N[Orn]GGPSSGAPPPS
B7: VPAC2 receptor peptide agonist P371 (peptide)
peptide: Hexanoyl-HSDAVFTDNYT[Orn]LLAKLALQKYLQSI[Orn]N[Orn]GGPSSGAPPPS
B8: VPAC2 receptor peptide agonist P392 (peptide)
peptide: Hexanoyl-HSDAVFTDSYT[Orn]LR[Aib]QVAA[Aib]KYLQSI[Orn]N[Orn]GGPSSGAPPPS
B9: VPAC2 receptor peptide agonist P384 (peptide)
peptide: B2 peptide with R12X, L23S, K27X, X28N
modifications: N-terminal hexanoyl (C6); Orn at 12, 27 and 29; Aib at 15 and 20
B10: VPAC2 receptor peptide agonist P386 (peptide)
peptide: B2 peptide with R12X, K21S, K27X, X28N
modifications: N-terminal hexanoyl (C6); Orn at 12, 27 and 29; Aib at 15 and 20
B11: VPAC2 receptor peptide agonist P389 (peptide)
peptide: B2 peptide with R12X, V17S, K27X, X28N
modifications: N-terminal hexanoyl (C6); Orn at 12, 27 and 29; Aib at 15 and 20
B12: VPAC2 receptor peptide agonist P362 (peptide)
peptide: Hexanoyl-HSEAVFTENYT[Orn]LR[Aib]QVAA[Aib]KYLQSI[Orn]N[Orn]GGPSSGAPPPS
B13: VPAC2 receptor peptide agonist P385 (peptide)
peptide: B2 peptide with R12X, Y22S, K27X, X28N
modifications: N-terminal hexanoyl (C6); Orn at 12, 27 and 29; Aib at 15 and 20
B14: VPAC2 receptor peptide agonist P363 (peptide)
peptide: Hexanoyl-HSDAVFTDQYT[Orn]LR[Aib]QVAA[Aib]KYLQSI[Orn]Q[Orn]GGPSSGAPPPS
B15: VPAC2 receptor peptide agonist P391 (peptide)
peptide: Hexanoyl-HSDAVFTDNYT[Orn]SR[Aib]QVAA[Aib]KYLQSI[Orn]N[Orn]GGPSSGAPPPS
B16: VPAC2 receptor peptide agonist P387 (peptide)
peptide: B2 peptide with R12X, A19S, K27X, X28N
modifications: N-terminal hexanoyl (C6); Orn at 12, 27 and 29; Aib at 15 and 20
B17: VPAC2 receptor peptide agonist P383 (peptide)
peptide: B2 peptide with R12X, Q24S, K27X, X28N
modifications: N-terminal hexanoyl (C6); Orn at 12, 27 and 29; Aib at 15 and 20
B18: VPAC2 receptor peptide agonist P388 (peptide)
peptide: B2 peptide with R12X, A18S, K27X, X28N
modifications: N-terminal hexanoyl (C6); Orn at 12, 27 and 29; Aib at 15 and 20
B19: VPAC2 receptor peptide agonist P382 (peptide)
peptide: B2 peptide with R12X, I26S, K27X, X28N
modifications: N-terminal hexanoyl (C6); Orn at 12, 27 and 29; Aib at 15 and 20
B20: VPAC2 receptor peptide agonist P406 (peptide)
peptide: Hexanoyl-HSDAVFTDQYTR[Aib]R[Aib]QVAA[Aib]KYLQSIK[Aib]KGGPSSGAPPPS
B21: VPAC2 receptor peptide agonist P408 (peptide)
peptide: Hexanoyl-HSDAVFTDQ[Tyr(OMe)]TR[Aib]R[Aib]QLAA[Aib]KYLQSIK[Aib]KGGPSSGAPPPS
B22: VPAC2 receptor peptide agonist P367 (peptide)
peptide: Hexanoyl-HSDAVFTDNYTLLR[Aib]QVAA[Aib]KYLQSI[Orn]N[Orn]GGPSSGAPPPS

biological target: T1, human VPAC2 receptor (human, UniProt P41587 24-438); assay: filter binding, human VPAC2 membranes, competition with 125I-VIP;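 note: assay plate incubated 1 h with shaking, then filtered, with filter-retained counts measured after adding scintillant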
T1 construct: whole, on cells; Stably expressed in a CHO-S cell line
T1 sequence (looked up): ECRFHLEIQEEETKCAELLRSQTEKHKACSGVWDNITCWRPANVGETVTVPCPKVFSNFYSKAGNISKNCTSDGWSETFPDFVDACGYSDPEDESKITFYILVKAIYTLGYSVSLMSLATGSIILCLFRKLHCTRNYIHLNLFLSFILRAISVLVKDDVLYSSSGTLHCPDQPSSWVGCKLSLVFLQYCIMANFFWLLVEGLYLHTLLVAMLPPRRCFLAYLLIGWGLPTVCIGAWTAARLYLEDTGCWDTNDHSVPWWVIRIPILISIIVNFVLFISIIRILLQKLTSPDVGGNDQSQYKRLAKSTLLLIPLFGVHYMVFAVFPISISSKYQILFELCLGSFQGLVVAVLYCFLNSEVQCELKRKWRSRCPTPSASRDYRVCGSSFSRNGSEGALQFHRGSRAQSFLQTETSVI
Description: The filled plate is incubated for 1 hour with shaking.
The transfer from assay plate to filter plate is conducted. The blocking buffer is aspirated by vacuum filtration and washed two times with flush buffer. 90 μL is transferred from the assay plate to the filter plate. The 90 μL transferred from assay plate is aspirated and washed three times with 200 μL flush buffer. The plastic support is removed. It is dried for 1 hour at 60° C. 30 μL Microscint is added. The count is performed.

| Binder | IC50 |
| --- | --- |
| B1 | 0.85 nM |
| B2 | 0.32 nM |
| B3 | 8.96 nM |
| B4 | 0.74 nM |
| B5 | 0.5 nM |
| B6 | 28.6 nM |
| B7 | 0.34 nM |
| B8 | 0.45 nM |
| B9 | 22.2 nM |
| B10 | 5.92 nM |
| B11 | 0.82 nM |
| B12 | 1.91 nM |
| B13 | 99.2 nM |
| B14 | 0.25 nM |
| B15 | 3.67 nM |
| B16 | 1.39 nM |
| B17 | 5.01 nM |
| B18 | 100 nM |
| B19 | 2.17 nM |
| B20 | 0.27 nM |
| B21 | 0.48 nM |

biological target: T2, rat VPAC2 receptor (rat, UniProt P35000 23-437); assay: cell-based or functional assay
T2 sequence (looked up): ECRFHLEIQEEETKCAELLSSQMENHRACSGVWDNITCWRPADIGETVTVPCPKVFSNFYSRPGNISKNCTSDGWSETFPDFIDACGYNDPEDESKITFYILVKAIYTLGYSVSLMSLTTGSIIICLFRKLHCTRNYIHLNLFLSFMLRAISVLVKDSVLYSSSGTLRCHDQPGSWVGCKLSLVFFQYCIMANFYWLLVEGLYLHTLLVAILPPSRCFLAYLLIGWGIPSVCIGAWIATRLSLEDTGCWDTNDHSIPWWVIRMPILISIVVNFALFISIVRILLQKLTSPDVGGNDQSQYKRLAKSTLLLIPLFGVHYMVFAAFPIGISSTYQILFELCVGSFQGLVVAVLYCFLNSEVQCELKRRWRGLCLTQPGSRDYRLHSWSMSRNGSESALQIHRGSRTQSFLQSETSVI

| Binder | Rat VPAC2 Receptor: DiscoveRx (EC50; nM), cAMP generation |
| --- | --- |
| B1 | 0.15 nM |
| B2 | 0.07 nM |
| B3 | 0.57 nM |
| B4 | 0.17 nM |
| B22 | 6.14 nM |
| B6 | 1.33 nM |
| B8 | 0.08 nM |
| B9 | 8.05 nM |
| B10 | 0.28 nM |
| B11 | 0.21 nM |
| B12 | 1.22 nM |
| B13 | 28.8 nM |
| B14 | 0.09 nM |
| B15 | 0.5 nM |
| B16 | 0.4 nM |
| B17 | 0.18 nM |
| B18 | 709 nM |
| B19 | 0.37 nM |
| B20 | 0.04 nM |
| B21 | 0.04 nM |

biological target: T3, rat VPAC1 receptor (rat, UniProt P30083 31-459); assay: cell-based or functional assay
T3 sequence (looked up): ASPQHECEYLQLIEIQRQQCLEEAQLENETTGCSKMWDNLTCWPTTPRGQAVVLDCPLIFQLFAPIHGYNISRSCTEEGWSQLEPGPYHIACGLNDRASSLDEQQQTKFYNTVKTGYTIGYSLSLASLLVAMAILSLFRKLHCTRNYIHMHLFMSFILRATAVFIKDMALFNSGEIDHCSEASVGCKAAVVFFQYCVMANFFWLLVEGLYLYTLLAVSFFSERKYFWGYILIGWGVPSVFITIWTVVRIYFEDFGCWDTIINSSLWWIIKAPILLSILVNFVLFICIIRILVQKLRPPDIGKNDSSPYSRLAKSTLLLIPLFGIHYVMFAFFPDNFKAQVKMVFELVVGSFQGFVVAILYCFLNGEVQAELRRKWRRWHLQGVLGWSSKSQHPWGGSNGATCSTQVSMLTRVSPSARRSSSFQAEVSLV

| Binder | Rat VPAC1 Receptor: DiscoveRx (EC50; nM), cAMP generation |
| --- | --- |
| B1 | 2.62 nM |
| B2 | 0.69 nM |
| B3 | 7.76 nM |
| B4 | 16 nM |
| B22 | 75.3 nM |
| B6 | 20.9 nM |
| B8 | 0.71 nM |
| B9 | > 600 nM |
| B10 | 4.34 nM |
| B11 | 4.4 nM |
| B12 | 35.9 nM |
| B13 | 96.8 nM |
| B14 | 1.44 nM |
| B15 | 9.09 nM |
| B16 | 20.4 nM |
| B17 | 1.68 nM |
| B18 | > 2000 nM |
| B19 | 8.21 nM |
| B21 | 0.35 nM |

biological target: T1, human VPAC2 receptor; assay: cell-based or functional assay

| Binder | Human VPAC2 Receptor: Alpha Screen (EC50; nM), cAMP generation |
| --- | --- |
| B1 | 0.29 nM |
| B2 | 0.23 nM |
| B3 | 3.11 nM |
| B4 | 0.31 nM |
| B5 | 0.15 nM |
| B22 | 6.5 nM |
| B6 | 1.09 nM |
| B7 | 0.13 nM |
| B8 | 0.21 nM |
| B9 | 6.7 nM |
| B10 | 0.65 nM |
| B11 | 0.16 nM |
| B12 | 0.58 nM |
| B13 | 23.9 nM |
| B14 | 0.27 nM |
| B15 | 0.48 nM |
| B16 | 0.47 nM |
| B17 | 0.12 nM |
| B18 | 2760 nM |
| B19 | 0.33 nM |
| B20 | 0.12 nM |
| B21 | 0.12 nM |

Reference: patent publication US20080194482A1, “Selective Apac2 Receptor Peptide Agonists” (priority 2005, published 2008)
